Source: US20150218285A1 (TORAY INDUSTRIES, published 2015)

T1: peptide set forth in SEQ ID NO: 268 (human)
T1 peptide: FTSGEKEQVDEW

T2: polypeptide set forth in SEQ ID NO: 266 (human)
T2 construct: identified by ELISA on synthetic 12-16 aa peptides of human CAPRIN-1
T2 peptide: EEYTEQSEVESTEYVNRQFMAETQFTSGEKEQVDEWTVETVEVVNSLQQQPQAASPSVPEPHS

T3: CAPRIN-1 protein on the cell surface of human cancer cells (human, UniProt Q14444 2-709)
T3 sequence (looked up): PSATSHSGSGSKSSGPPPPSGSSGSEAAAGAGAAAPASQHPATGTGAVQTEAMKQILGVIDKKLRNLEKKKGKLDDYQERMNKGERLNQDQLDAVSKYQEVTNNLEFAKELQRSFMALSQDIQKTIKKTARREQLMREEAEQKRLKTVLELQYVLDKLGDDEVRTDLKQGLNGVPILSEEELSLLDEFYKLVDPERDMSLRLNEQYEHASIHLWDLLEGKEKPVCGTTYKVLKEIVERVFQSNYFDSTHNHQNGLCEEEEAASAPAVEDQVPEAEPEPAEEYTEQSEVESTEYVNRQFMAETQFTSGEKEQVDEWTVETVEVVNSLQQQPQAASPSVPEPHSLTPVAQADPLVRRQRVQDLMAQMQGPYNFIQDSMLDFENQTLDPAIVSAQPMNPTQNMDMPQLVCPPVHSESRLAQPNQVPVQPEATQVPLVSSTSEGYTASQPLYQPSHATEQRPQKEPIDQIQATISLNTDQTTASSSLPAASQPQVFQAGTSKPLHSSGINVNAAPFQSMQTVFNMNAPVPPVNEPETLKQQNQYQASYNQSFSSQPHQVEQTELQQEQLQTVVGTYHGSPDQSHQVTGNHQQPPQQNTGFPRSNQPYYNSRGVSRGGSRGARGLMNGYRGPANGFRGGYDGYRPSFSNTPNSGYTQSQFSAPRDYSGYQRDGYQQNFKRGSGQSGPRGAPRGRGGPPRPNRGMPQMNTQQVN

T4: polypeptide comprising the amino acid sequence set forth in SEQ ID NO: 269 (human)
T4 peptide: PPVNEPETLKQQNQYQAS

T5: peptide set forth in SEQ ID NO: 267 (human)
T5 peptide: QQPQAASPSVPE

T6: polypeptide set forth in SEQ ID NO: 431 (human)
T6 peptide: VERVFQSNYFDSTHNH

T7: human CAPRIN-1 recombinant protein (human, UniProt Q14444 1-709)
T7 construct: also called CAPRIN-1 protein; human CAPRIN-1 protein
T7 sequence: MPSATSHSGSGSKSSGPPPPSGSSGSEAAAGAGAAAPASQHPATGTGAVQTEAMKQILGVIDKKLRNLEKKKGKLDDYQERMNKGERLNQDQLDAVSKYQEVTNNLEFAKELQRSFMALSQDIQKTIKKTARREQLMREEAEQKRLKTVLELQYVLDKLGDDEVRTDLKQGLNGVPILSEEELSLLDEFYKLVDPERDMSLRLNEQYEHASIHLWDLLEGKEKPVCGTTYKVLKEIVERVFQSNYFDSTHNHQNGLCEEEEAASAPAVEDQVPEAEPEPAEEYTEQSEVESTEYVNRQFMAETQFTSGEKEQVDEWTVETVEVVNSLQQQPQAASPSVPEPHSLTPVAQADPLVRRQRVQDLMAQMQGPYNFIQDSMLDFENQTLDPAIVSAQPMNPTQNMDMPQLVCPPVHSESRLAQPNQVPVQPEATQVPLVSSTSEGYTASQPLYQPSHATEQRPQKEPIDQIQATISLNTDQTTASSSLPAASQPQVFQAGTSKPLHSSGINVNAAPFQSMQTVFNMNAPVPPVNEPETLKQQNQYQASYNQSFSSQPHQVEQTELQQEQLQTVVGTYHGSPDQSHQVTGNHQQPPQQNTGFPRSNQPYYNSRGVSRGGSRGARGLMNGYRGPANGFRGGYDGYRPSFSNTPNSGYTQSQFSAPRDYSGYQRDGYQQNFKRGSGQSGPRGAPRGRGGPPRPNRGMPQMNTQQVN

T8: polypeptide set forth in SEQ ID NO: 430 (human)
T8 peptide: ATQVPLVSSTSEGYTA


Columns and labels:
[1] = molecular target: T1, peptide set forth in SEQ ID NO: 268; assay: ELISA on immobilised synthetic CAPRIN-1 peptides, culture supernatant
[2] = molecular target: T2, polypeptide set forth in SEQ ID NO: 266; assay: as above
[3] = molecular target: T3, CAPRIN-1 protein on the cell surface of …; assay: cell-based or functional assay
[4] = molecular target: T3, CAPRIN-1 protein on the cell surface of …; assay: flow cytometry on Hep3B, HepG2, SK-Hep-1, SW480; culture supernatant; vs isotype control
Description: Subsequently, four liver cancer cell lines (Hep3 GB, HepG2, SK-Hep-1, and SW480), which were confirmed to express a CAPRIN-1 gene, were investigated for whether or not a CAPRIN-1 protein is expressed on the surfaces of these cells. 1×10⁶ cells of each cell line were centrifuged with a 1.5-mL micro centrifugation tube. To the cells was added the culture supernatant (100 μL) containing any of mouse monoclonal antibodies #1 to #22 against a CAPRIN-1 protein reacting to cancer cell surface produced in Example 4 and mouse-chicken chimeric antibodies #1 to #3 against a CAPRIN-1 protein produced in the above (2), followed by being left to stand on ice for 1 hour. After washing with PBS, the cells were suspended in a FITC-labeled goat anti-mouse IgG antibody (manufactured by Invitrogen Corporation) diluted by 500-fold with PBS containing 0.1% FBS, followed by being left to stand on ice for 1 hour. After washing with PBS, the fluorescence intensity was measured with FACS Calibur available from Becton, Dickinson and Company. Separately, as a control, the same procedure as in above was performed using an iso-type control antibody, instead of the culture supernatants containing the mouse monoclonal antibodies #1 to #22 against a CAPRIN-1 protein and the mouse-chicken chimeric antibodies #1 to #3. As a result, the fluorescence intensity in the cells to which any of the monoclonal antibodies #1 to #22 and the mouse-chicken chimeric antibodies #1 to #3 was added was 20% or more higher than that in the control in every case. Specifically, in the case of using mouse-chicken chimeric antibody #1, the fluorescence intensity was enhanced by 200% or more in both SK-Hep-1 and Hep3B. […] The rate of increase in the fluorescence intensity is represented by the rate of increase in the mean fluorescence intensity (MFI value) in each cell and is calculated by the following calculation formula: […]

[5] = molecular target: T4, polypeptide comprising the amino acid …; assay: ELISA on immobilised synthetic CAPRIN-1 peptides, culture supernatant
[6] = molecular target: T5, peptide set forth in SEQ ID NO: 267; assay: as above
[7] = molecular target: T6, polypeptide set forth in SEQ ID NO: 431; assay: as above
[8] = molecular target: T3, CAPRIN-1 protein on the cell surface of …; assay: flow cytometry on Hep3B, HepG2, SK-Hep-1, SW480; antibody 20 ug/mL; control: secondary antibody only
Description: Four human liver cancer cell lines (Hep3 GB, HepG2, SK-Hep-1, and SW480) were investigated whether or not a CAPRIN-1 protein is expressed on the cell surface using mouse anti-CAPRIN-1 monoclonal antibodies #30 to #36. 5×10⁵ cells of each of the liver cancer cell lines were centrifuged with a 1.5-mL micro centrifugation tube. The cells were subjected to reaction with each of mouse anti-CAPRIN-1 antibodies #30 to #36 at a final concentration of 20 μg/mL, followed by being left to stand on ice for 1 hour. After washing with PBS, the cells were reacted with a 100-fold diluted Alexa488-labeled goat anti-mouse IgG antibody (manufactured by Invitrogen Corporation), followed by being left to stand on ice for […]. After washing with PBS, the fluorescence intensity was measured with FACS Calibur available from Becton, Dickinson and Company. Separately, the cells were subjected to reaction with only the secondary antibody as a negative control.

[9] = molecular target: T7, human CAPRIN-1 recombinant protein; assay: reactivity with CAPRIN-1 protein, method not detailed
[10] = molecular target: T3, CAPRIN-1 protein on the cell surface of …; assay: reactivity with liver cancer cell lines, method not detailed
[11] = molecular target: T8, polypeptide set forth in SEQ ID NO: 430; assay: reactivity with the epitope peptide, method not detailed

Binder	binding result [2]	binding result [9]	binding result [10]	binding result [11]	cytotoxicity (ADCC, 51Cr release) on SK-Hep-1 [3] [%]	also measured
mouse monoclonal antibody #5 (antibody, V domains shown, mouse hybridoma antibody) VH: DAELVKPGASVKISCKASGYTFTDHSIHWVQQKPEQGLEWIGYISPGNGNIKYNEKFKGKATLTADKSSSTAYMQLNSLTSEDSAVYFCKRSLGRGGPYYFDYWGQGTTVTVSS VL: DIVLTQAAPSLPVTPGESVSISCRSSKSLLHSNGNTYLYWFLQRPGQSPQLLIYRMSNLASGVPDRFSGSGSGTAFTLRISRVEAEDVGVYYCMQHREYPVTFGSGPN	binds	–	–	–	≥ 12	binding result [1]: binds; rate of increase in mean fluorescence intensity [4]: ≥ 20%
human-chicken chimeric antibody #3 (antibody, human IgG1, kappa, V domains shown, produced similarly to human-chicken chimeric antibody #1 from chicken monoclonal antibody #3; human IgG1 constant domains; also called human-chicken chimeric monoclonal antibody #3) VH: AVTLDESGGGLQTPGGALSLVCKASGFTFSGYDMLWVRQAPGKGLEWVAGIGSTGGGTDYGAAVKGRATISRDNGQSTVRLQLNNLRAEDTATYYCAKVAGGCNSGYCRDSPGSIDAWGHGTEVIVSA VL: AVTQQPASVSANPGETVKITCSGGGSRNYYGWYQQKSPGSVPVTVIYYDDQRPSNIPSRFSGALSGSTSTLTITGVQADDEAVYFCGSADSNTYEGSFGAGTTLTVLT	–	–	–	–	≥ 12	binding result [5]: binds
human-chicken chimeric antibody #1 (antibody, human IgG1, kappa, V domains shown, chicken variable domains with human IgG1 H-chain and L-chain constant domains; also called human-chicken chimeric monoclonal antibody #1) VH: AVTLDESGGGLQMSRGGLSLVCKASGFDFSSYQMNWIRQAPGKGLEFVAAINKFGNSTGHGAAVKGRVTISRDNGQSTVRLQLNNLRAEDTAIYFCTKHAYGYCGSGTWCAAGEIDAWGHGTEVIVSS VL: QAASTQPSSVSANPGETVEITCSGGGSYSYGWFQQKSPGSAPVTVIYYNNKRPSDIPSRFSGSKSGSTGTLTITGVQADDEAVYYCGSGDSTDTAVFGAGTTLTVLG	binds	–	–	–	–	binding result [6]: binds
mouse anti-CAPRIN-1 antibody #34 (antibody, V domains shown, mouse hybridoma antibody; also called mouse anti-CAPRIN-1 monoclonal antibody #34; mouse anti-CAPRN-1 antibody #34) VH: GAELVRPGTSVKVSCKASVYAFTNYLIEWVKQRPGQGLEWIGVINPKSGGTKYNEKFRGKATLTADKSSSTAYMQLSSLTSGDSAVYFCAITGTDYWGQGTTLTVSS VL: QGTRCDIQMTQTTSSLSASLGDRVTISCSASQGINNYLNWYQQKPDGTVKLLIYYTSSLRSGVPSRFSGSGSGTDYSLTISNLEPEDVATYYCQQYSKLPRTFGGGTKLEIKR	–	–	–	–	–	binding result [7]: binds; increase in fluorescence intensity over the control [8]: ≥ 35%
mouse monoclonal antibody #4 (antibody, V domains shown, mouse hybridoma antibody) VH: GAELVRSGASVKMSCKASGYSFTDYNMYWVKQTPGQGLEWIGYIYPGNGGTNYNQKFKGKATLTADTSSSTAYMQISSLTSEDSAVYFCARDYDDGGYAMDYWGQGTTVTVSS VL: DIQMTQSPASLSASVGETVTITCRASGNIHNYLTWYQQKQGKSPQLLVYNAKTLADGVPSRFSGSGSGTQYSLKINRLQPEDFGSYYCQHFWNIPWTFGGGTKLNSR	binds	–	–	–	≥ 12	binding result [6]: binds; rate of increase in mean fluorescence intensity [4]: ≥ 20%
humanized anti-CAPRIN-1 antibody #2 (antibody, human IgG1, V domains shown) VH: EVQLVESGGGLVQPGGSLRLSCAASGFSFSGSYYMSWVRQAPGKGLEWIAYIYIGDGVTAYANWAKGRFTISKDNSKNTLYLQMNSLRAEDTAVYFCARGNKLWGPGTLVTVSS VL: DIQMTQSPSSLSASVGDRVTIKCQASQSISSYLAWYQQKPGKAPKRLIYDASNLDSGVPSRFSGSGSGTDFTFTISSLQPEDIATYYCQCTAVSSATIYGNAFGGGTKVEIK	–	binds	binds	binds	–	–
mouse anti-CAPRIN-1 antibody #31 (antibody, V domains shown, mouse hybridoma antibody; also called mouse anti-CAPRIN-1 monoclonal antibody #31) VH: GPELVKPGASVKISCKASGYSFTGYFMNWVMQSHGKSLEWIGRINPYNGDTFYNQKFKGKATLTVDKSSSTAHMELRSLASEDSAVYYCARRIHYYYGSSYYAMDYWGQEPHH VL: DVQITQSPSYLAASPGETITINCRASKSISKYLAWYQEKPGKTNKLLIYSGSTLQSGIPSRFSGSGSGTDFTLTISSLEPEDFAMYYCQQHNEYPWTFGGGTKLEIKR	–	–	–	–	–	increase in fluorescence intensity over the control [8]: ≥ 35%

Second part, led by results:

binding result [2]	binding result [9]	binding result [10]	binding result [11]	Binder	cytotoxicity (ADCC, 51Cr release) on SK-Hep-1 [3] [%]	also measured
–	binds	binds	binds	humanized anti-CAPRIN-1 antibody #3 (antibody, human IgG1, V domains shown) VH: EVQLVESGGGLVQPGGSLRLSCAASGFSFSGSYYMSWVRQAPGKGLEWIAYIYIGDGVTAYANWAKGRFTISRDNSKNTLYLQMNSLRAEDTAVYYCARGNKLWGPGTLVTVSS VL: DIQMTQSPSSLSASVGDRVTIKCQASQSISSYLAWYQQKPGKAPKRLIYDASNLDSGVPSRFSGSGSGTDFTFTISSLQPEDIATYYCQCTAVSSATIYGNAFGGGTKVEIK	–	–
–	binds	binds	binds	humanized anti-CAPRIN-1 antibody #1 (antibody, human IgG1, V domains shown) VH: QVQLVESGGGLVKPGGSLRLSCAASGFSFSGSYYMSWVRQAPGKGLEWIAYIYIGDGVTAYANWAKGRFTISRDNAKNSLYLQMNSLRAEDTAVYFCARGNRLWGQGTLVTVSS VL: DIQMTQSPSSLSAAVGDRVTIKCQASQSISSYLAWYQQKPGKPPKRLIYDASNLDSGVPSRFSGSGSGTDFTFTISSLQPEDIATYYCQCTAVSSATIYGNAFGGGTKVEIK	–	–
